# Measured values published in the Human Domainome abundance scans (Beltran et al. 2025).
# ± gives the uncertainty stated by the source.
# B1: Transcriptional regulator ERG, residues 117 to 197; numbered along this chain, P11308 (parent)
# chain: NMTTNERRVIVPADPTLWSTDHVRQWLEWAVKEYGLPDVNILLFQNIDGKELCKMTKDDFQRLTPSYNADILLSHLHYLRE
# Variants of: B1
# Assay: abundance fitness (aPCA) (normalised: wild type 0, dead -1); higher = more abundant; growth selection in yeast, the domain comes from the species named
# Conditions: Homo sapiens
row,Variant,abundance fitness
1,NMTTNERRVIVPADPTLWSTDHVRQWLEWAVKEYGLPDVNILLFQNIDGKELCKMTKDLFQRLTPSYNADILLSHLHYLRE [D59L],-0.765 ± 0.18
2,NMTTNERRVIVPADPTLWSTDHVRQWLEWAVKEYGLPDVNILLFQNIDGKELCKMTKDGFQRLTPSYNADILLSHLHYLRE [D59G],-0.204 ± 0.053
3,NMTTNERRVIVPADPTLWSTDHVRQWLEWAVKEYGLPDVNILLFQNIDGKELCKMTKDRFQRLTPSYNADILLSHLHYLRE [D59R],-0.154 ± 0.067
4,NMTTNERRVIVPADPTLWSTDHVRQWLEWAVKEYGLPDVNILLFQNIDGKELCKMTKDVFQRLTPSYNADILLSHLHYLRE [D59V],-0.232 ± 0.073
5,NMTTNERRVIVPADPTLWSTDHVRQWLEWAVKEYGLPDVNILLFQNIDGKELCKMTKDWFQRLTPSYNADILLSHLHYLRE [D59W],-0.743 ± 0.18
6,NMTTNERRVIVPADPTLWSTDHVRQWLEWAVKEYGLPDVNILLFQNIDGKELCKMTKDMFQRLTPSYNADILLSHLHYLRE [D59M],-0.204 ± 0.12
7,NMTTNERRVIVPADPTLWSTDHVRQWLEWAVKEYGLPDVNILLFQNIDGKELCKMTKDCFQRLTPSYNADILLSHLHYLRE [D59C],0.027 ± 0.13
8,NMTTNERRVIVPADPTLWSTDHVRQWLEWAVKEYGLPDVNILLFQNIDGKELCKMTKDSFQRLTPSYNADILLSHLHYLRE [D59S],-0.155 ± 0.1
9,NMTTNERRVIVPADPTLWSTDHVRQWLEWAVKEYGLPDVNILLFQNIDGKELCKMTKDEFQRLTPSYNADILLSHLHYLRE [D59E],-0.09 ± 0.075
10,NMTTNERRVIVPADPTLWSTDHVRQWLEWAVKEYGLPDVNILLFQNIDGKELCKMTKDYFQRLTPSYNADILLSHLHYLRE [D59Y],-0.666 ± 0.33
11,NMTTNERRVIVPADPTLWSTDHVRQWLEWAVKEYGLPDVNILLFQNIDGKELCKMTKTDFQRLTPSYNADILLSHLHYLRE [D58T],-0.072 ± 0.087
12,NMTTNERRVIVPADPTLWSTDHVRQWLEWAVKEYGLPDVNILLFQNIDGKELCKMTKNDFQRLTPSYNADILLSHLHYLRE [D58N],-0.169 ± 0.13
13,NMTTNERRVIVPADPTLWSTDHVRQWLEWAVKEYGLPDVNILLFQNIDGKELCKMTKKDFQRLTPSYNADILLSHLHYLRE [D58K],-0.063 ± 0.12
14,NMTTNERRVIVPADPTLWSTDHVRQWLEWAVKEYGLPDVNILLFQNIDGKELCKMTKCDFQRLTPSYNADILLSHLHYLRE [D58C],-0.134 ± 0.092
15,NMTTNERRVIVPADPTLWSTDHVRQWLEWAVKEYGLPDVNILLFQNIDGKELCKMTKWDFQRLTPSYNADILLSHLHYLRE [D58W],-0.132 ± 0.066
16,NMTTNERRVIVPADPTLWSTDHVRQWLEWAVKEYGLPDVNILLFQNIDGKELCKMTKADFQRLTPSYNADILLSHLHYLRE [D58A],0.039 ± 0.054
17,NMTTNERRVIVPADPTLWSTDHVRQWLEWAVKEYGLPDVNILLFQNIDGKELCKMTKYDFQRLTPSYNADILLSHLHYLRE [D58Y],0.004 ± 0.12

row,Variant,abundance fitness
1,NMTTNERRVIVPADPTLWSTDHVRQWLEWAVKEYGLPDVNILLFQNIDGKELCKMTKPDFQRLTPSYNADILLSHLHYLRE [D58P],0.103 ± 0.1
2,NMTTNERRVIVPADPTLWSTDHVRQWLEWAVKEYGLPDVNILLFQNIDGKELCKMTKRDFQRLTPSYNADILLSHLHYLRE [D58R],0.011 ± 0.046
3,NMTTNERRVIVPADPTLWSTDHVRQWLEWAVKEYGLPDVNILLFQNIDGKELCKMTKIDFQRLTPSYNADILLSHLHYLRE [D58I],0.055 ± 0.14
4,NMTTNERRVIVPADPTLWSTDHVRQWLEWAVKEYGLPDVNILLFQNIDGKELCKMTKHDFQRLTPSYNADILLSHLHYLRE [D58H],0.202 ± 0.18
5,NMTTNERRVIVPADPTLWSTDHVRQWLEWAVKEYGLPDVNILLFQNIDGKELCKMTKLDFQRLTPSYNADILLSHLHYLRE [D58L],-0.03 ± 0.056
6,NMTTNERRVIVPADPTLWSTDHVRQWLEWAVKEYGLPDVNILLFQNIDGKELCKMTKFDFQRLTPSYNADILLSHLHYLRE [D58F],-0.096 ± 0.16
7,NMTTNERRVIVPADPTLWSTDHVRQWLEWAVKEYGLPDVNILLFQNIDGKELCKMTKGDFQRLTPSYNADILLSHLHYLRE [D58G],-0.078 ± 0.042
8,NMTTNERRVIVPADPTLWSTDHVRQWLEWAVKEYGLPDVNILLFQNIDGKELCKMTKSDFQRLTPSYNADILLSHLHYLRE [D58S],-0.1 ± 0.084
9,NMTTNERRVIVPADPTLWSTDHVRQWLEWAVKEYGLPDVNILLFQNIDGKELCKMTKQDFQRLTPSYNADILLSHLHYLRE [D58Q],-0.088 ± 0.083
10,NMTTNERRVIVPADPTLWSTDHVRQWLEWAVKEYGLPDVNILLFQNIDGKELCKMTMDDFQRLTPSYNADILLSHLHYLRE [K57M],-0.165 ± 0.084
11,NMTTNERRVIVPADPTLWSTDHVRQWLEWAVKEYGLPDVNILLFQNIDGKELCKMTVDDFQRLTPSYNADILLSHLHYLRE [K57V],-0.127 ± 0.055
12,NMTTNERRVIVPADPTLWSTDHVRQWLEWAVKEYGLPDVNILLFQNIDGKELCKMTRDDFQRLTPSYNADILLSHLHYLRE [K57R],-0.016 ± 0.042
13,NMTTNERRVIVPADPTLWSTDHVRQWLEWAVKEYGLPDVNILLFQNIDGKELCKMTTDDFQRLTPSYNADILLSHLHYLRE [K57T],-0.14 ± 0.088
14,NMTTNERRVIVPADPTLWSTDHVRQWLEWAVKEYGLPDVNILLFQNIDGKELCKMTQDDFQRLTPSYNADILLSHLHYLRE [K57Q],-0.159 ± 0.11
15,NMTTNERRVIVPADPTLWSTDHVRQWLEWAVKEYGLPDVNILLFQNIDGKELCKMTSDDFQRLTPSYNADILLSHLHYLRE [K57S],-0.024 ± 0.062
16,NMTTNERRVIVPADPTLWSTDHVRQWLEWAVKEYGLPDVNILLFQNIDGKELCKMTPDDFQRLTPSYNADILLSHLHYLRE [K57P],-0.028 ± 0.088
17,NMTTNERRVIVPADPTLWSTDHVRQWLEWAVKEYGLPDVNILLFQNIDGKELCKMTNDDFQRLTPSYNADILLSHLHYLRE [K57N],-0.234 ± 0.14
